According to patent US20260049148A1, “PROTEASE-CLEAVABLE MOIETIES AND METHODS OF USE THEREOF” (CytomX Therapeutics, Inc., priority 2022, published 2026):
Square brackets hold non-standard residues; d marks the D form. Ends that are not written are not given here. * marks the point of attachment. Dnp = O=[N+]([O-])c1ccc(*)c([N+](=O)[O-])c1; Mca = COc1ccc2c(CC(=O)*)cc(=O)oc2c1

Legend:
Assay in all cases: Internally quenched peptide probe cleavage assay
Assay type in all cases: biochemical
Conditions in all cases: 20 μM internally quenched peptide probe, 20 nM protease, 37° C.
[1] = target: MMP14 (Homo sapiens, UniProt P50281)
Excerpt: (§1) The study provided herein evaluated the cleavability kinetics (i.e., pM/s and kcat/KM (M^−1s^−1)) of CMs with matrix metalloprotease (MMP) 2 (MMP2), MMP9, and MMP14. The CM AIALY (SEQ ID NO: 5) was presented in an internally quenched peptide probe format, rather than included in an activatable antibody format. In the internally quenched probe, the CM sequence was positioned between a 7-methoxycoumarin-4-acetyl (MCA) fluorophore and a 2,4-dinitrophenyl (DNP) quencher such that cleavage of the CM sequence produces a fluorescence signal. The probe was of the following design: (MCA)-[…](DNP)-D-Arg (SEQ ID NO: 160). The cleavage rates (pM/s) were measured using 20 μM internally quenched peptide probe and 20 nM MMP2, MMP9, or MMP14. Cleavability kinetics (i.e., pM/s and kcat/KM (M^−1s^−1)) were determined in 96- or 384-well plate format at 37° C. in the following buffers: 50 mM Tris-HCl (pH 7.5), 10 mM CaCl2), 150 mM NaCl, 0.05% (w/v) Brij-35 for MMP2 and MMP9 or 50 mM HEPES (pH 6.8), 10 mM CaCl2), 0.5 mM MgCl2, 0.05% (w/v) Brij-35 for MMP14. Cleavability kinetics were determined on an Infinite 200 PRO (Tecan) multimode plate reader using a fluorescence excitation wavelength of 320 nm and an emission wavelength of 405 nm.

[2] = target: T1, MMP2 (Homo sapiens, UniProt P08253)
T1 sequence (P08253 110-660): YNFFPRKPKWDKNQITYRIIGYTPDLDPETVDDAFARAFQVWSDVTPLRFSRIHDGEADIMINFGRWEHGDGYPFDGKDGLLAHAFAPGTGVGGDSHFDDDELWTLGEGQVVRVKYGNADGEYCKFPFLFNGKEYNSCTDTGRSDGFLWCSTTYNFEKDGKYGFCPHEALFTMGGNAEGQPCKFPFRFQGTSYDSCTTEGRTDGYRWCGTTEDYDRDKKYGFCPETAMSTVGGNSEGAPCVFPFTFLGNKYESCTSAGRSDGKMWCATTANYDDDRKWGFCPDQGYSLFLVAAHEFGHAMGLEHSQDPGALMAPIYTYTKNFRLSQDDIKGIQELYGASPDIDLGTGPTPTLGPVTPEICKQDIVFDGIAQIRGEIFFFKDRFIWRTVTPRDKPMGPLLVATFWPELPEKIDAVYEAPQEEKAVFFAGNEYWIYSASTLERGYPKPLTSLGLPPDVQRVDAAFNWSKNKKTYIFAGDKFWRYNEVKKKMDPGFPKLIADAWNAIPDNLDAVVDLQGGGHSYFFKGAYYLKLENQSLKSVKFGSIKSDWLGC
Excerpt: as §1

[3] = target: MMP9 (Homo sapiens, UniProt P14780)
Excerpt: as §1

Chain of MMP9 (P14780 94-707): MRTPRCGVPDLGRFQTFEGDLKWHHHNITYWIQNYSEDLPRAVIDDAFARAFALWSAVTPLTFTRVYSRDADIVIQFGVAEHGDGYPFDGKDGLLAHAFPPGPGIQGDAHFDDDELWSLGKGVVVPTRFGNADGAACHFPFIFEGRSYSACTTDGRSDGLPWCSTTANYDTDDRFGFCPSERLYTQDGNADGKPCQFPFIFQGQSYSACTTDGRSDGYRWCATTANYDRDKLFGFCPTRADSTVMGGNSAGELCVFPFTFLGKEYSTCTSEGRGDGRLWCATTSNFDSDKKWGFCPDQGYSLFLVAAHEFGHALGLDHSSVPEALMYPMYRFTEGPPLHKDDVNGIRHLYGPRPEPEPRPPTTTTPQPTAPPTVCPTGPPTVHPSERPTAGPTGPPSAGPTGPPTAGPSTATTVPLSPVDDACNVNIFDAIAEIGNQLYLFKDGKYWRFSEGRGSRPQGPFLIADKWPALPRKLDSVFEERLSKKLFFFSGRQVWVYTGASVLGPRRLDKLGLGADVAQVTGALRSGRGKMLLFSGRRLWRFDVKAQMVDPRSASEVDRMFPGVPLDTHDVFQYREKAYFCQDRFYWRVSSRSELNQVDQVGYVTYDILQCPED

Substance: (MCA)-Gly-Ser-Ala-Ile-Ala-Leu-Tyr-Gly-Gly-Ser-Lys (DNP)-D-Arg (Mca-GSAIALYGGSK(Dnp)[dR])
- Probe Cleavage (pM/s) MMP14 [1]: 145 pM/s
- Probe Cleavage (pM/s) MMP2 [2]: 135 pM/s
- Probe Cleavage (pM/s) MMP9 [3]: 87.7 pM/s
